Results as given in patent US20200054763A1 (DEBIOPHARM INTERNATIONAL S A, published 2020).

Target: T1, human CD37 (human, UniProt P11049 1-281)
T1 sequence: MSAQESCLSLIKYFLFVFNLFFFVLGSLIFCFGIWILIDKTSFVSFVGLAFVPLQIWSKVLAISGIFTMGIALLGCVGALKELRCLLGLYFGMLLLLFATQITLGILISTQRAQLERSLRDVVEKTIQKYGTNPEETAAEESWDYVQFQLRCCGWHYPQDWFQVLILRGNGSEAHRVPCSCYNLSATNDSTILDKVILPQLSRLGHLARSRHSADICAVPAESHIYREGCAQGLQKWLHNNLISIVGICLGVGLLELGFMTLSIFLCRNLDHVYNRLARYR
Assay: cell-based or functional assay

B1: IMGN529 (naratuximab emtansine) (antibody, V domains shown)
VH: QVQVQESGPGLVAPSQTLSITCTVSGFSLTTSGVSWVRQPPGKGLEWLGVIWGDGSTNYHPSLKSRLSIKKDHSKSQVFLKLNSLTAADTATYYCAKGGYSLAHWGQGTLVTVSS
VL: DIQMTQSPSSLSVSVGERVTITCRASENIRSNLAWYQQKPGKSPKLLVNVATNLADGVPSRFSGSGSGTDYSLKINSLQPEDFGTYYCQHYWGTTWTFGQGTKLEIKR
modifications: maytansinoid DM1 linked through the SMCC linker; attachment residues and chain not stated
  median IC50, cell proliferation (MTT assay, 72 hours), B cell lymphoma cell lines (n=46): 0.45 nM
  median IC50, cell proliferation (MTT assay, 72 hours), T cell lymphoma cell lines (n=8): 22.5 nM
  median IC50, cell proliferation (MTT assay, 72 hours), fifty-four lymphoma cell lines: 0.79 nM
